Assay results as given in a protein production outcome set (Wang et al. 2014).

Test: label from the status in PepcDB records
In the case of “MATRPKTIWESFLSPVVRFLMDEDKWRRYAQSIDWEKESDRFRRTDVIIPSYYTSQNFHGIEGGYLNSSAAVTYDPITEYVLPPNETLVRQALIDGVKVQPRRILDLGCGTGSTTLMLKQAFPQADVIGLDLSPYMLVRAEDKARTADLDISWRHGNAEKTSFPNASFDLVTTSLLFHETPVEVSQTILQECFRLLVAGGQVIILDGNQKSLRQLNWLNDIFEEPYIREYAADNLDARMGAAGFVGVQTEDLWLIHQVTSGIKPILATDTNQIKDRQYMPAIDNNNLEGLESPAFGIVALEHHHHHH”, the protein production is reported as “failed”. With “MATVERAMMLKTMRKHGVTLALFAAGSTGLTAAINELTKSTIDQQAALQQKALFDQVLPADRYNNDLLKSCYLVSAPALGKGQHKVWIAKNNDRPIGAVMEATAPDGYSGAIQLLVAADFSGTVLGTRVTEHHETPGLGDKIELRLSDWITHFAGKVIHGQGDSHWAVKKDGGDFDQFTGATITPRAVVNAVKRAGLYAQTLPAQLPEFTACGE” the protein production was “failed”. With “MATYNYPEFGAGLWHFANYIDRYAVDGYGPALSTIDQINAAKEVGELSYVDLPYPFTPGVTLSEVKDALKDAGLKAIGITPEIYLQKWSRGAFTNPDPAARAAAFELMHESAGIVRELGANYVKVWPGQDGWDYPFQVSHKNLWKLAVDGMRDLAGANPDVKFAIEYKPREPRVKMTWDSAARTLLGIEDIGLDNVGVLLDFGHALYGGESPADSAQLIIDRGRLFGMDVNDNLRGWDDDLVVGTVHMTEIFEFFYVLKINNWQGVWQLDQFPFRENHVEAAQLSIRFLKHIYRALDKLDIPALQAAQEAQNPLQAQRIVQDALLSSITVSE” the protein production was “not failed”. For “MAVDVPGIISPKTAEAASQLTDGIGGRAYLNSNGAILVTKIQLPSSTQVSNGTAYIYSGFSGGTESDIGFQYSDKYNVWKPYMKVGSKGQDQVQYLEGGSQFTNTKGFRPGSTVQLTIYKNLNGNTRATYWGTNNAGYNGRLISEISKTNVGSISKWKALATVATTGSRQSIKSNFSTSFTNITIDNKAITPVIDTQDFAKVTVSGNSVSLSVVKNLEHHHHHH”, the protein production was “not failed”. For “MAVECIKDKVTRYPERASYSDEDLVAMLDRNFTCTVSFIDGGIPYAIPMMLASEGKTIYLHGSMKSRIYGILKTGQLIAISLLEINGIVLAKEIKNNSINYVSALIFGRPYEIDDTEKKIEVFRLLTEKLVKGRRDNSIKPSYEDLNGVFVFAVKPETFSMKARTGPPHDTSTDDIWSGVLPIQHTISEAGENAPEYVKSLYGKRIFI”, the protein production was “not failed”. For “MAVERPGYLRIAAELRKRISSGEFGIGDQIPTLPALAEEYGVLETTVRNALALLRNEGLIETRARAGTRVRERPPIHRLTADRYRNKAGVPSTPFTRDQGIGWSEYRLDKKYEQVEATMELAALFECEVGEPLLARHFVFHDNDQPTQMSVSYLRWSDVEGSPVADPIHEPWPGGTQAQLASIGIRVTEITESFTCGMPTDHESKTLKIGSGVPVLRYTRRHIAEDGRIVEVAHPIVRRGDTTVVDFVIKLD”, the protein production was “failed”. For “MAVGLPLLLSSMAMPAQAAPAPEAPGNVAGVAKKNLDPGSYKDGRYMVVLAEKPAATYDGGTAGLAPTKPEEGKKLDVDSAEVKQYQQHLQQKQQEVAQQENVTIKRDFTTAVNGFSATLTADQAINLAKDPKVLMVAPDTQYAPDYSTTDFLKLSGPNGTWATQYGGQDNAGKGTVVGVIDTGYTPSNPFFAGEPVGPLVGNPQVGVPYRTADGKIAMLKADGDTFVGECQPGTDTGADYDGSACNSKVLSTHYFADAFLETVPPENRAPEEVISPVDVDSHGTHTASTAAGNANVDAVVDGRSFGTTSGIAPAAKLSVYKVCWEDTDPATGGCYGSASVDAIEQAILDGVDVLNYSISGSTTSTTDPVSLAFLSAASAGIFVATSAGNSGPTASTVNHGAPWLTTVAATSFSQELQGTVEFSDGSKFRGASIMNREVTGAGVVLSTNAASGEGNAALCAPGSLDPAKVAGKVVVCDRGVVDRTAKSAEVLRGGGVGMILVNLTDSSLDTDKHIIPTVHVNPPATQTIKDKVTANPAITVSLLNRDTTGLPAEAQPQIAGFSSRGPLLATDSDLLKPDVSAPGVAILAGVSPIGTGGDNFGFLSGTSMASPHVAGFGALILAKNPQWSPATVKSAMMTTAGPVKLANGAVNKDVFATGAGQVDPAKVLSPGLVYDATTEDYLKFIQGTGMDLGMEGLGTTQARDMNVPSFALGNLAGKIEVTRTLTALTPGTYRASVNVPGVNVKVTPSVLTFGAPGEKKTFKVQFENNNAALGKFAMGSLNWQGANKTVTSPIAVRPQSVIADKALAFTGTGPNGSGTINITSGTNLPVGVTIDGLSKADSSAVELVPGPFAGETNASNYVKKVTVGEGSALAKFSVISSNEAADFDMLVVTPSGQQLPAATASASETLSVPNPAAGDYYVYANLYASPNNQATKATVDAAVLGANQGNASVTPNPIRLANGKTGQISLNWKNLEPGSYIGRLTFAGTSEPSFVTVLVNPGGAVVVPDEEDPKKDKKDKKHRGKIRADEPTQSNNAG”, the protein production was “failed”. For “MAVKIQTPAGTIEITNDVIATVVGGAATDIYGIVGMASKNQIKDNLNDILRRENYSRGVVVRQEDNGIAVDVYTIVSYGTKISEVSRNVQEKVKYNLETLLGVTANSVNVFVQGVRVLPDLEHHHHHH”, the protein production was “not failed”. With “MAVPPVEMYSGSFWNRMRKPLPLRTQVIRFTVVFVIVSFILAVALQITHERMPDPKVTKPLPDLGFELLTKISFLSVVTDVLIAFLSLLSFFTLWKLYLLHRHCVGSGEPELPCNIPGVSRFFLSVWLCKENCRIELRNIHTIAWIRFITSYALLLLFRSLVIVMTSMPTPVDKCQDPPKIENPVKNVILTVLTAGGGSIHCGDLMYSGHTVILTLHLMFHWIYGAMVHWSFRPVVTVVAIFSYYCIVASRSHYTDDVLVAIYLTIATFIAVGHNADGAPWQLQLFIRWLPCCGANSREVTEDSQPVMVAFKSEAVDELRERDDSAGLSGEVSTNEVVSHHHHHH” the protein production was “failed”. With “MAVSHSVKERTISENSLIILLQGLQGRVTTVDLRDESVAHGRIDNVDAFMNIRLAKVTYTDRWGHQVKLDDLFVTGPNVRYVHIPDDVNITSTIEQQLQIIHRVRNFGGKGQGRWEFPPKNCK” the protein production was “failed”. With “MAVTHRTRRPLRAANKTTNAASLGATCSRQQRARLVHCVGRRTNCLAPALCSPRFTAIPRWSSNAMSMSLADARYLFNRILGLIHRSMASMRTRGWRATWQRIRVHTQAPPVALGTPLWLPQPAPFAAFALPHSAAPRVSVVIPVYNHIAHTLACLRSLAAHPPLVDVEIIVVDDGSSDATAEQLPQVAGLHYHLRASNGGFIAACNDGIALARGDFVVLLNNDTIPQPGWLDRLIDTFAQHPSAGLIGAQLVYPDGRLQESGGVVFGDGSAWSYGRFESSDDPRYAYVRAMDYCSGAAIALPRTLLQTLGGLDRRYMPAYYEDTDLAFAVRAAGYQVLVQPASVVVHDEGTSNGTDTRTGVKAYQVRNQNVFAEKWQQALKAQLPVGTVPGPALLHRGQRQVLILDECVPQPDRDSGSLRQFNLIRLLREEGAHVVFVPTRREHAGRHTQALQQLGAEVWYAPFLEGVGSWLRTHGARFAVVLLVRHHVAHACLPLLKQYAPQARTLFDTVDLHYLRERRGAEVAGDANLLHGAERTRLRELEIMAATDVTLLVSAAEQAQLRTDAPHIRTALLSNLHDVAGSGHSFAQRRDLVFVGGFRHPPNVDAVQWFISAIFPQVRAQLPDVVFHCIGADLPDALKLLADECTGVQLHGHVPDLVPFMDNARIAVAPLRFGAGVKGKINLSMAHGQPVVGTTCAVEGMHLRDGEDVCVADDANAFAAAIVRLYQDAALWQRLADNGLRNVAEYFSLDAARATVRALFIAE” the protein production was “failed”. In the case of “MAVWLKLSLIVLCGCLSCWVGSVWAQPPLPGFAALSAGQYPLADRQLSQAIAHGKATAALYGNRCWVRLSLERYEEAIKDCSVALDLQPHEPETWLNRGLAYYRQGQSQAAIADFDQLLQQSPTDYRAYYNRGLAYLDLAQPEQAIADFQQALERLPATEIGAAVDLHTDRCMGELHRAQPGPAVSACSQALELQPSAARARYLRALAYWQLHQPQAAIADLRQACDAFAQAGATVQLDRARQLLQHWQQQSSLVAQAPRLQSKNWPGAVTYAMDLANCHDRSPLNELEFCCDRAFQQC”, the protein production is reported as “failed”. For “MAWNTNLRWRLPLTCLLLQVIMVILFGVFVRYDFEADAHWWSERTHKNLSDMENEFYYRYPSFQDVHVMVFVGFGFLMTFLQRYGFSAVGFNFLLAAFGIQWALLMQGWFHFLQDRYIVVGVENLINADFCVASVCVAFGAVLGKVSPIQLLIMTFFQVTLFAVNEFILLNLLKVKDAGGSMTIHTFGAYFGLTVTRILYRRNLEQSKERQNSVYQSDLFAMIGTLFLWMYWPSFNSAISYHGDSQHRAAINTYCSLAACVLTSVAISSALHKKGKLDMVHIQNATLAGGVAVGTAAEMMLMPYGALIIGFVCGIISTLGFVYLTPFLESRLHIQDTCGINNLHGIPGIIGGIVGAVTAASASLEVYGKEGLVHSFDFQGFNGDWTARTQGKFQIYGLLVTLAMALMGGIIVGLILRLPFWGQPSDENCFEDAVYWEMPEGNSTVYIPEDPTFKPSGPSVPSVPMVSPLPMASSVPLVP”, the protein production was “not failed”. With “MAYATGITFASRSILPICSRTFLSPLRVASLLVFPEKSSATFFRRVQVPHLFSTSTTTLFSSVKCSIHSTSSPETENQAVFRPNVVDILEERGLLESITSENLRSACSDPKVAPLRVYCGFDPTAESLHLGNLLGIIVLSWFQRCGHQAVGLIGGATGRVGDPSGKSLERPELDADTLEKNIAGITKIIIKILGSNPSPGGSYVIFNNYDWWKDMTMLDFLNKVGRFARVGTMMAKESVKKRLESEQGMSYTEFTYQLLQAYDFLHLFKNEGINVQIGGSDQWGNITAGTDLIRKILQAEEAAYGLTFPLLLKNDGTKFGKSEDGAIWLSPSMLSPYKFYQYFFSVPDVDVIRFLKTLTFLSLDEIKILEDQMSKPGYVPNTAQIKLAEEVTRFVHGEEGLKEAIKATEALRPGAETKLDWNLIERIAEDIPSCSLPIDRVSGLSIVDLSVSAGLFESKSAARRMLKQGGFYMNNERVDDENKRVDEEDIVEGRGLVLSAGKKNKVVVRIS” the protein production was “failed”. In the case of “MAYDLWYWDGIPGRGEFVRLALEAGKIPYRDRAREPGEDMLADMRRRRDTAPFAPPYLVADGMTIAQTANILLFLGVEHGLAPPDRAGRLWVNQLQLTIADLTAEAHDVHHPVAAGLYYEDQQDVALRRAADFRETRMPKFMQYFEQALDRPGGWLTDMGRWSYADLSLYHVVEGLLHAFPRRMRTLMHRYPRLMTLHARVAELPELRGYLASDRRLPFGDGIFRHYPELDGA”, the protein production is reported as “failed”. With “MAYEDLSKKIIAGVGGKDNVKSVVHCTTRLRFKLKDESATHTDELKDTDGVITVVQSGGQYQVVIGNEVADVYETLIRVGGFADGGSVPDDYEDGEKMSIFDRFIDLISGIFTPMLGVLCAAGMIKGFVAMFVAFNWLSENSGTYKILYSIGDGFFYFLPIVLGLTAAKKFHVDQFVGMAIGMALCYPSIVALNSSKTVLSTLFSGSIFESQIHATFLGIPVVMMSYTSSVIPIILAVWFASKVQAFAKRIVPTVVKTFLVPFITLLIAVPITFLIIGPVASWLSDGISTVCVAIYNFSPIVAGLVMGAFWQVFVIFGVHWGFVAVMMANLASQGFDPILGLSLAASFAQTGVVLGILLQTKNQKTRGIALPAFISGIFGVTEPAIYGLTLPRKRPFILSCVAASIGGGIIGFAGTKMYMMGGMGLFSIPAAINSKTGVDGSVYGLIIAMAIAAVLGFALQMLFGYKSVDSNDKQTKVVETAATADPVMAGGVSVETTPTGAATKVEPNVTYNAATKLSSPETGQIIPLSEVKDEVFSSGAMGKGVAIEPTDGVLYAPADGEVALVFPTGHAVGLNTTDGAEILMHIGMDTVELEGKGFETLVQKGETVKAGQPLVKFDIEAIKAAGYPVTTPMVVTNSKNYHDVKLAFPAATEVNATEPLLQLN” the protein production was “failed”. In the case of “MAYEQFAYVYDELMQDVPYPEWVAWVLEQVEPGKRIADIGCGTGTATLLLADHYEVTGVDLSEEMLEIAQEKAMETNRHVDFWVQDMRELELPEPVDAITILCDSLNYLQTEADVKQTFDSAARLLTDGGKLLFDVHSPYKMETLFNGKTYATHAEQSSYIWFADPGEEPLSVVHELTFFIEGEDGRYDRVDETHHQRTYPPEQYITWLREAGFRVCAVTGDFKSDAPTETAERIFFVAEKI”, the protein production is reported as “not failed”.
